Laboratory results: the supplement of paper PMC10567573
± gives the standard deviation.

Experiment: protein stability index of a GFP-peptide fusion (GPS, HEK-293T) (PSI 1-6); higher = more stable
[1] = treatment: DMSO, c terminus: a fixed tail appended
[2] = treatment: MLN4924 1 uM, 8 h, c terminus: a fixed tail appended
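Also: 24-mer peptide tiles fused after GFP, lentivirally expressed, FACS-sorted into six equal bins by GFP/DsRed ratio, decoded by Illumina sequencing, PSI is the read-weighted mean bin number.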

Row | Sequence | protein stability index [1] | protein stability index [2] | protein stability index (treatment: DMSO, c terminus: native) | protein stability index (treatment: MLN4924 1 uM, 8 h, c terminus: native)
1 | TKMWHPNIYETGDVCISILHPPVD [CDC34] | 2.23 ± 0.2 | 2.12 ± 0.37 |  | 
2 | ARKARKYEIPHFRLKKVENIKIWL [PHTF1] | 2.09 ± 0.83 | 1.96 ± 0.46 |  | 
3 | PAEAEGAAQELENQMKERQGLFFD [TMEM120A] | 5.33 ± 0.1 | 5.26 ± 0.34 |  | 
4 | KDLTEYLKVRSHDPEEAIRHDVIV [PDS5B] | 3.26 ± 0.38 | 3.39 ± 0.14 |  | 
5 | EQAQAYAERLGVTFFEVSPLCNFN [RAB40A] | 2.25 ± 0.26 | 2.48 ± 0.3 |  | 
6 | YFSLYCLHQETQLIHVYLPLTSHI [SNX8] | 2.95 ± 0.35 | 2.78 ± 0.32 |  | 
7 | KLPNDSRVERRFHFSQSLTVIHDF [FAF2] | 2.17 ± 0.19 | 2.26 ± 0.44 |  | 
8 | LDEGMQIPSTQFDAAHPTNVQRLA [CTNNB1] | 4.73 ± 0.12 | 4.7 ± 0.2 |  | 
9 | WQRQMDQPQDRNQALGTHRPVNKL [RASAL3] | 4.39 ± 0.35 | 4.49 ± 0.14 |  | 
10 | NIMTQNVERILARGENLEHLRNKT [VAMP8] | 3.46 ± 0.29 | 3.93 ± 0.068 |  | 
11 | YYHRRNEMTTTDDLDFKHHNYKEM [CPXM2] | 3.22 ± 0.33 | 3.35 ± 0.25 |  | 
12 | LARRRRRRQARREAEADKPRRLGR [NOP53] | 4.63 ± 0.093 | 4.75 ± 0.42 |  | 
13 | SAKLAPHYFHSISYKIEEISPSTL [KCNK9] | 2.41 ± 0.23 | 2.31 ± 0.34 |  | 
14 | LRMMVENIMNKEAFMNQEITKAFH [RHOBTB1] | 2.28 ± 0.5 | 2.2 ± 0.24 |  | 
15 | MSTGPIAESWCYTQVKVVKFSYMW [SPOPL] | 2.41 ± 0.08 | 3.35 ± 1.5 |  | 
16 | KLVKVCNGHDCWSLISLSNNTGKN [TENT5D] | 2.33 ± 0.24 | 2.34 ± 0.43 |  | 
17 | MFLEISSYYDPGRLICDFPFDGLL [VPS39] |  | 3.39 ± 1.3 |  | 
18 | MTTALQGQRLAVCVPAHPPPCAWA [CTBP1-DT] | 2.43 ± 0.2 | 2.56 ± 0.14 |  | 
19 | FVVMGVIGGLLGATFNCLNKRLAK [CLCN6] | 2.55 ± 0.39 | 2.7 ± 0.59 |  | 
20 | SSSTMSKSEYMEIEEDMNNSIAHY [KCNA1] | 4.56 ± 0.33 | 4.5 ± 0.11 |  | 
21 | VEVDAPKSQDLAKIMADIRAQYDE [KRT18] | 4.76 ± 0.12 | 4.71 ± 0.17 |  | 
22 | LLTGETEADPEMIKRAEDYGPVEV [CLPTM1] | 5.02 ± 0.3 | 5.14 ± 0.11 |  | 
23 | CGGSGGGGGGGGGGGGCSSGSSYC [LURAP1L] | 3.28 ± 0.46 | 3.22 ± 0.22 |  | 

Row | Sequence | protein stability index [1] | protein stability index [2] | protein stability index (treatment: DMSO, c terminus: native) | protein stability index (treatment: MLN4924 1 uM, 8 h, c terminus: native)
24 | YYLRKGKKINSNQLENEQSQENSI [SPANXN3] | 4.47 ± 0.23 | 4.23 ± 0.27 |  | 
25 | IVIFCLETLPELKDDKDFTGTVHR [KCNA1] | 2.42 ± 0.46 | 2.16 ± 0.27 |  | 
26 | QKLLEQTQIIGEQNARLAELERKL [FBXO28] | 4.15 ± 0.082 | 4.24 ± 0.38 |  | 
27 | TSVGMSFVAGGISGTVAAVLTLPF [SLC25A39] | 2.95 ± 0.77 | 2.54 ± 0.25 |  | 
28 | TCFDQRKRANAAFLIGAYAVIYLK [CDC14A] | 2.05 ± 0.31 | 2.13 ± 0.41 |  | 
29 | VLSLLSLEPAQRPPLSHIMAQPLC [NEK8] | 2.17 ± 0.15 | 2.3 ± 0.099 |  | 
30 | LFFIDGSTPSDNIVRRFLNICENT [CDC14A] | 2.37 ± 0.17 | 2.22 ± 0.24 |  | 
31 | VRLQSIHTMRKISNNITLREDQLD [INTS4] | 3.2 ± 0.055 | 3.3 ± 0.36 |  | 
32 | EWIRFDQSNVLCSIFGICMVFSGL [PTGFR] | 2.87 ± 0.59 | 3.15 ± 0.071 |  | 
33 | DAIGEGKVTLRIRNVRFSDEGGFT [MOG] | 2.88 ± 0.35 | 2.84 ± 0.44 |  | 
34 | HTGERPFQCNQCGASFTQKGNLLR [IKZF1] | 2.21 ± 0.29 | 2.79 ± 0.52 |  | 
35 | QLLILLQNCTDEGEREAIQKSVTR [POP5] | 3.91 ± 0.26 | 4.12 ± 0.27 |  | 
36 | LRRTGCAALRIANCKLFRLQLQQG [GAN] | 2.33 ± 0.47 | 2.13 ± 0.28 |  | 
37 | MPDYMILQELKKLKNSNYESIQQT [PPTC7] | 2.5 ± 0.41 | 2.93 ± 0.39 |  | 
38 | DDILYHVKGMQRIVNQWSEKFSDE [DLC1] | 3.52 ± 0.14 | 3.75 ± 0.28 |  | 
39 | VERSKMIDRNLREDGEKAAREVKL [GNAI1] | 4.93 ± 0.38 | 5.09 ± 0.062 |  | 
40 | EEEVFPLAMNYLDRFLAGVPTPKS [CCND2] | 3.35 ± 0.43 | 3.55 ± 0.25 |  | 
41 | DPEPSGPHLPRVMLPGVLAGVSAE [SCNN1D] | 4.59 ± 0.43 | 4.33 ± 0.21 |  | 
42 | EKFSSSLHELSSRVEASHLTTSQE [FBF1] | 4.99 ± 0.19 | 5.01 ± 0.11 |  | 
43 | GADREFIEARRRALKRFVNLVARH [SNX8] | 2.45 ± 0.15 | 2.64 ± 0.25 |  | 
44 | SDGFRDCKKGDPKHGKRKRGRPRK [ELF3] | 5.18 ± 0.35 | 5.22 ± 0.15 |  | 
45 | CATTNASGNSCGPCGTSQKGCCN [KRT34] |  |  | 3.78 ± 0.17 | 3.66 ± 0.31
46 | VGEPEFHYIAGAHGNEVLGRELLL [CPXM2] | 2.88 ± 0.62 | 3.25 ± 0.2 |  | 

Row | Sequence | protein stability index [1] | protein stability index [2] | protein stability index (treatment: DMSO, c terminus: native) | protein stability index (treatment: MLN4924 1 uM, 8 h, c terminus: native)
47 | EMRTKEQILELLVLEQFLTILPQE [ZNF263] | 2.44 ± 0.35 | 2.26 ± 0.43 |  | 
48 | ICAIEYLHSKEIVYRDLKPENILL [PRKX] | 2.61 ± 0.39 | 2.96 ± 0.94 |  | 
49 | TIDKQREEMAKSSRASAARVGQLQ [LRRC45] | 4.67 ± 0.14 | 4.73 ± 0.14 |  | 
50 | LTAALLTFDTGCLTLSQYILLDPI [POMT2] | 3.36 ± 0.32 | 3.12 ± 0.14 |  | 
51 | LESQVQKDGVADSTVISSMPCLLM [C18orf25] | 3.39 ± 0.25 | 3.54 ± 0.27 |  | 
52 | LTRFLSRVIKCDPDCLRACQEQIE [CCND1] | 2.34 ± 0.16 | 2.56 ± 0.07 |  | 
53 | DVVEYLVDRCGASVEAGGSVHFDG [FEM1A] | 2.48 ± 0.32 | 2.46 ± 0.6 |  | 
54 | VIDKETIDLLAFTSVAELELLGLE [SDE2] | 2.27 ± 0.52 | 2.73 ± 0.48 |  | 
55 | AAHLALLLLCGTISLRVYRKVLQA [RTN2] | 2.49 ± 0.33 | 2.51 ± 0.73 |  | 
56 | TSYKVMVSNDSHTWVTVKNGSGDM [CPXM2] | 2.8 ± 0.38 | 2.94 ± 0.27 |  | 
57 | GTQFTFDQDPSVLYFSIHRYEQGR [HDAC6] | 2.31 ± 0.51 | 2.52 ± 0.34 |  | 
58 | KNSLFPSPISSISPGLHSFTDHQR [KCNK9] | 3.3 ± 0.25 | 3.27 ± 0.38 |  | 
59 | RLALRQRLKCRSFKWYLENVYPEM [GALNT9] | 1.95 ± 0.22 | 2.35 ± 0.18 |  | 
60 | PFDLEQQWQDLMSIMEMQAMEVNT [NFE2L1] | 3.87 ± 0.17 | 4.03 ± 0.28 |  | 
61 | RETASLKLLPHQPRIVEMKKGSNG [PDZK1] | 3.75 ± 0.31 | 3.85 ± 0.32 |  | 
62 | LIHQHEKVIYLDDDVIVQGDIQEL [GLT8D2] | 3.6 ± 0.26 | 3.59 ± 0.22 |  | 
63 | MPRAPKRQRCMPEEDLQSQSETQG [MAGEA10] | 5.02 ± 0.42 | 5.05 ± 0.12 |  | 
64 | LDPAYTTLEFENVQVLTMGNDTSP [HNF4A] | 5.58 ± 0.15 | 5.46 ± 0.18 |  | 
65 | ADQRSRMLSIFYFAIPVGSGLGYI [SPNS1] | 2.44 ± 0.52 | 2.26 ± 0.31 |  | 
66 | SSLSFFLKKMGKRLDYLNLKGARL [FBXO39] | 2.96 ± 0.66 | 2.63 ± 0.43 |  | 
67 | SLLLTPQENESLFTFLGKKCVTMS [WASL] | 2.45 ± 0.15 | 2.5 ± 0.4 |  | 
68 | SIYDNVPGSILYSSSGDLADLENE [DLC1] | 4.843 ± 0.034 | 4.75 ± 0.12 |  | 
69 | GNQDYKYRVSDVTKAGHSLELIEP [VDR] | 4.24 ± 0.22 | 4.3 ± 0.26 |  | 

Row | Sequence | protein stability index [1] | protein stability index [2] | protein stability index (treatment: DMSO, c terminus: native) | protein stability index (treatment: MLN4924 1 uM, 8 h, c terminus: native)
70 | RKAAKSLIKLGLERFHGVGILGFN [ACSBG2] | 2.64 ± 0.49 | 2.51 ± 0.35 |  | 
71 | LGNFFTTLRVVHHKFHSQRHGSKK [TMEM120A] | 2.39 ± 0.21 | 2.54 ± 0.64 |  | 
72 | GKSFCHSTHLTVHRRIHTGEKPYE [ZNF8] | 3 ± 0.16 | 3.35 ± 0.3 |  | 
73 | PHLRSFCETCVGSWSIQMRQHHHQ | 2.4 ± 0.25 | 2.34 ± 0.23 |  | 
74 | VSRGGHGQQDLFRVLKAYTLYRPE [TBC1D10A] | 2.06 ± 0.17 | 2.12 ± 0.36 |  | 
75 | VSSLISEKTNGATPLLMAARYGHL [FEM1C] | 2.28 ± 0.17 | 2.52 ± 0.28 |  | 
76 | ARMLSSNERDSSEPGNFIPLFTPQ [CDC25A] | 3.85 ± 0.25 | 3.96 ± 0.4 |  | 
77 | TVCDPARSCAIVEDDGLQSAFTAA [ADAMTS4] | 3.6 ± 0.85 | 4.16 ± 0.47 |  | 
78 | FSKVKTSLGLDHCHSFISGTAPLN [ACSBG2] | 2.52 ± 0.3 | 2.44 ± 0.29 |  | 
79 | FTDCSFFVRGQEFKAHKSVLAARS [SPOPL] | 2.95 ± 0.69 | 2.61 ± 0.57 |  | 
80 | NVYRKRRKYFADLAMNYKHGDPIP [TPH1] | 2.75 ± 0.13 | 2.9 ± 0.26 |  | 
81 | LLASVPSNPNGNGGFMGYSAENIP [CRY1] | 3.52 ± 0.45 | 3.41 ± 0.23 |  | 
82 | FEEQENYFLLCDVLPEDRILREEL [ZNF277] | 3.26 ± 0.16 | 3.5 ± 0.67 |  | 
83 | WLSDWVTSYKVMVSNDSHTWVTVK [CPXM2] | 2.67 ± 1.5 | 2.56 ± 0.2 |  | 
84 | TEEELRRIQTQKEQAKENENGELQ [ZC2HC1C] | 5.68 ± 0.23 | 5.54 ± 0.14 |  | 
85 | VTASPPTDLIWKNQNSWGTGEDVK [LMNB1] | 4.36 ± 0.26 | 4.37 ± 0.24 |  | 
86 | RAFKIKDFANTIPGHGGIMDRFDC [CDS1] | 2.41 ± 0.28 | 2.76 ± 0.27 |  | 
87 | LPDVEPAAFLALLRFLYSDEVQIG [BTBD1] | 2.16 ± 0.43 | 2.28 ± 0.28 |  | 
88 | GGSGGGSHHHHQSRGACTSHDPQS [KCNA4] | 5.08 ± 0.24 | 5.12 ± 0.33 |  | 
89 | SVVRDLKGYPDGVKSIVVKGYNIW [TLE6] | 2.26 ± 0.26 | 2.23 ± 0.21 |  | 
